Test [1] concerns the target T1, human neonatal Fc Receptor (FcRn) (human, UniProt P55899 24-297; P61769 21-119).
T1 construct: not shown: histidine tag
The test is described as follows: bio-layer interferometry (Octet QKe), His-tagged FcRn captured on anti-Penta-His biosensors, pH 7.2, antibody range 500-15.6 nM, R2 0.9876; row head Kdis(1/s).

Test [2] concerns the target T1, human neonatal Fc Receptor (FcRn). The test is described as follows: bio-layer interferometry (Octet QKe) at pH 7.2; His-tagged FcRn on anti-Penta-His biosensor, antibody in solution.
Experimental: (§1) Binding to recombinant human Fc receptors was measured by bio-layer interferometry using an Octet® QKe instrument. […] Curve fitting was performed using the instrument's analysis software. Binding to FcRn was performed with association and dissociation steps at pH 6.0 as well as pH 7.2.
The target is the same in test [3]. The test can be described thus: bio-layer interferometry (Octet QKe), His-tagged FcRn captured on anti-Penta-His biosensors, pH 7.2, antibody range 500-15.6 nM, R2 0.9876.
Experimental: as §1
Test [4] addresses human KIT (wild-type KIT) (human, UniProt P10721 26-976). The test can be described thus: cell-based or functional assay.
For test [5], the target named is T1, human neonatal Fc Receptor (FcRn). The test is described as follows: bio-layer interferometry (Octet QKe) at pH 6.0; His-tagged FcRn on anti-Penta-His biosensor, antibody in solution.
Experimental: as §1
The target of test [6] is T2, recombinant human FcγRIIb (human, UniProt P31994 46-217, limits assumed).
T2 construct: Histidine-tagged recombinant receptor; not shown: histidine tag
T2 sequence (looked up): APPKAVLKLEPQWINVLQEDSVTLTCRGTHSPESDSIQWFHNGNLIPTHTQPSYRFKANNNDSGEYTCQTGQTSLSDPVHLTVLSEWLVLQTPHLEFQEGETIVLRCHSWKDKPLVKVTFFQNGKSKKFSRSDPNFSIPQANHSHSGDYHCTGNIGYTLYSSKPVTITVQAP
The test can be described thus: bio-layer interferometry (Octet QKe); His-tagged receptor on anti-Penta-His biosensor, antibody in solution.

In test [7] the target is T3, recombinant human FcγRIIIb (human, UniProt O75015 17-200).
T3 construct: Histidine-tagged recombinant receptor; not shown: histidine tag
The test is described as above.

Test [8] concerns the target T4, recombinant human FcγRI (human, UniProt P12314 16-288, limits assumed).
T4 construct: Histidine-tagged recombinant receptor captured on anti-Penta-His biosensors; also called Fc-gamma receptor I; not shown: histidine tag
The test is described as above.

In test [9] the target is T5, recombinant human FcγRIIIa (human, UniProt P08637 17-208).
T5 construct: Histidine-tagged recombinant receptor; not shown: histidine tag
The description is as above.

Test [10] addresses T6, recombinant human FcγRIIa (human, UniProt P12318 36-218, limits assumed).
T6 construct: Histidine-tagged recombinant receptor; not shown: histidine tag
T6 sequence (looked up): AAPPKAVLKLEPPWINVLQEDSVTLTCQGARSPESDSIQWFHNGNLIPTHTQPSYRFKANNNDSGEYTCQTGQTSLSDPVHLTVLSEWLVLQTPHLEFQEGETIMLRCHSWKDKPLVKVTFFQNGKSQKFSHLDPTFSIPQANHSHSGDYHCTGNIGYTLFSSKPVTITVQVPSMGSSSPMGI
Described as above.

The target of test [11] is T1, human neonatal Fc Receptor (FcRn). The test is described as follows: bio-layer interferometry (Octet QKe), His-tagged FcRn captured on anti-Penta-His biosensors, pH 6.0, antibody range 31.25-1.9 nM, R2 0.9869. (In BLI a coated tip is dipped into the sample, and binding shifts an interference pattern.)
Experimental: as §1
The target is the same in test [12]. The test can be described thus: bio-layer interferometry (Octet QKe), His-tagged FcRn captured on anti-Penta-His biosensors, pH 6.0, antibody range 31.25-1.9 nM, R2 0.9869; row head Kdis(1/s).
Experimental: as §1

The values below come from US20240109961A1 (CELLDEX THERAPEUTICS, published 2024).

T1 sequence (P55899 24-297 limits assumed, form in doubt, chain 1 of 2): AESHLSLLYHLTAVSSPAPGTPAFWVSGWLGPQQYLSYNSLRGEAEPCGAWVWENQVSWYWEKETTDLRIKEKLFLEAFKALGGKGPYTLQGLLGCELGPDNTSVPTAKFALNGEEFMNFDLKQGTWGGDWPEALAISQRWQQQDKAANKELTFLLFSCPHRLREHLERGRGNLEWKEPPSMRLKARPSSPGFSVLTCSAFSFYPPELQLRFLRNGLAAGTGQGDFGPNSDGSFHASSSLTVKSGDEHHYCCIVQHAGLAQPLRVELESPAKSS
T1 sequence (P61769 21-119 limits assumed, form in doubt, chain 2 of 2): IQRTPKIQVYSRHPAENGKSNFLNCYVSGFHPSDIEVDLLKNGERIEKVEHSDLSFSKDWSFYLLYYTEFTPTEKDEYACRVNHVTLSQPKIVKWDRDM
T3 sequence (O75015 17-200 limits assumed): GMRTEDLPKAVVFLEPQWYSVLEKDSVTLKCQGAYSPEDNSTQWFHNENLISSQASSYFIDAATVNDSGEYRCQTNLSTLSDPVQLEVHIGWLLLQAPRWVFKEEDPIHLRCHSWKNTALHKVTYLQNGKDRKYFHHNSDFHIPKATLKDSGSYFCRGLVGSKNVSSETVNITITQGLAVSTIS
T4 sequence (P12314 16-288 limits assumed): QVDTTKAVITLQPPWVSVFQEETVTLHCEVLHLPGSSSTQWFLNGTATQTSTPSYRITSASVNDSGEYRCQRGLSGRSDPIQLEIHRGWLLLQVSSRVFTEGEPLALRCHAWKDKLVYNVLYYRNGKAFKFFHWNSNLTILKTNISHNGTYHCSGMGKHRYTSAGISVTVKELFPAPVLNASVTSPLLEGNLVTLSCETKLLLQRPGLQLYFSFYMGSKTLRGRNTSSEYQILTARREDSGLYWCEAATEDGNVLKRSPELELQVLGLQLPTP
T5 sequence (P08637 17-208 limits assumed): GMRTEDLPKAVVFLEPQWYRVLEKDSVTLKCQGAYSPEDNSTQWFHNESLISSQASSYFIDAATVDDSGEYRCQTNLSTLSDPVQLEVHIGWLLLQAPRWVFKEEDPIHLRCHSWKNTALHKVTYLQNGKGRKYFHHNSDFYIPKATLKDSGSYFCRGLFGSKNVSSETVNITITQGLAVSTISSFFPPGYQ
human KIT (wild-type KIT), sequence (P10721 other isoform, or with tags, fused parts or gaps limits assumed): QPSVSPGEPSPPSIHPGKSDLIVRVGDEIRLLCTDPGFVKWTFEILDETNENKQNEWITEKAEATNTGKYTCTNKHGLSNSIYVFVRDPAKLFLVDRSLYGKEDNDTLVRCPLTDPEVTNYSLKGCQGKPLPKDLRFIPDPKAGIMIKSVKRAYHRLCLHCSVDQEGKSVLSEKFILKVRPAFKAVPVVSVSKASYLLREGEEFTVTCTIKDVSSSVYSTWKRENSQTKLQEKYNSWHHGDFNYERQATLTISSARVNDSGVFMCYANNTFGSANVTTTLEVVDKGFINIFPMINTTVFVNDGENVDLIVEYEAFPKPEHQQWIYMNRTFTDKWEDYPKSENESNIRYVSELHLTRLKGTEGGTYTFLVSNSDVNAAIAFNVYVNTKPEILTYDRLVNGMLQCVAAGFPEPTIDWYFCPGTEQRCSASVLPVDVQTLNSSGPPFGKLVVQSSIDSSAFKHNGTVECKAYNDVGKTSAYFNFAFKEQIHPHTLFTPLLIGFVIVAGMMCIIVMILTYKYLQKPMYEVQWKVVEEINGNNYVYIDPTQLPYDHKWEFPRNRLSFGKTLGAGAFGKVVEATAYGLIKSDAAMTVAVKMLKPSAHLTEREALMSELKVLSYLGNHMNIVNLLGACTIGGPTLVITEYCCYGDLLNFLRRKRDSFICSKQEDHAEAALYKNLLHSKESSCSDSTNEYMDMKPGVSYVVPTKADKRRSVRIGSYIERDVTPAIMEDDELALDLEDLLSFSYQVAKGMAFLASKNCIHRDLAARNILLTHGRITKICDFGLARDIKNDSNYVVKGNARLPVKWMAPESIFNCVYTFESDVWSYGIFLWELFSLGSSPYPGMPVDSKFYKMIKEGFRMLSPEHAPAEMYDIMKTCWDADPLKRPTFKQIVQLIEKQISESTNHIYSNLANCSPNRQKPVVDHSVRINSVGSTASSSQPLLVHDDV

B1: mAb1 (antibody)
heavy: QVQLVQSGAEVKKPGASVKLSCKASGYTFTDYYINWVRQAPGKGLEWIARIYPGSGNTYYNEKFKGRATLTADKSTSTAYMQLSSLRSEDTAVYFCARGVYYFDYWGQGTTVTVSSASTKGPSVFPLAPSSKSTSGGTAALGCLVKDYFPEPVTVSWNSGALTSGVHTFPAVLQSSGLYSLSSVVTVPSSSLGTQTYICNVNHKPSNTKVDKKVEPKSCDKTHTCPPCPAPEAQGGPSVFLFPPKPKDTLYITREPEVTCVVVDVSHEDPEVKFNWYVDGVEVHNAKTKPREEQYNSTYRVVSVLTVLHQDWLNGKEYKCQVSNKALPAPIEKTISKAKGQPREPQVYTLPPSRDELTKNQVSLTCLVKGFYPSDIAVEWESNGQPENNYKTTPPVLDSDGSFFLYSKLTVDKSRWQQGNVFSCSVMHEALHNHYTQKSLSLSPG
light: DIVMTQSPSSLSASVGDRVTITCKASQNVRTNVAWYQQKPGKAPKALIYSASYRYSGVPDRFTGSGSGTDFTLTISSLQPEDFADYFCQQYNSYPRTFGGGTKVEIKRTVAAPSVFIFPPSDEQLKSGTASVVCLLNNFYPREAKVQWKVDNALQSGNSQESVTEQDSKDSTYSLSSTLTLSKADYEKHKVYACEVTHQGLSSPVTKSFNRGEC
notes: Expressed in CHO cells; also called anti-KIT antibody mAb1; Fc mutated anti-KIT antibody
Regarding B1, the off-rate (koff) in test [1] was 0.0807 s⁻¹; in [12] it was 0.000765 s⁻¹. In addition, the dissociation constant (Kd) in test [2] came out at 77100 pM; in test [5], 380 pM; in test [11] it was 383 pM. The results for the kon in test [3] and in test [11] were 1.05e+06 M⁻¹ s⁻¹ and 2e+06 M⁻¹ s⁻¹, respectively. Moreover, the “mean IC50, inhibition of SCF-dependent M-07e cell proliferation” value in test [4] came out at 1110 pM. Further, the binding result in test [6], in test [7], in test [8], in [9] and in test [10] was “no binding (tested: 500 nM)” in each case.

As a reminder, the koff is a measure of how fast the partners let go of each other. Read a low koff as a long-lived complex. What is called Kd is the constant that tells how readily two partners part at equilibrium. A higher Kd goes with lower affinity. The kon is the second-order rate constant of association. The low end stands for slow association, the high end for fast association.
